For one test, the target named is active MASP-2cf (human). Description: enzyme inhibition assay (equilibrium KI from residual activity, photometric); enzymes co-incubated with serial dilutions of the inhibitors for 2 h at room temperature; 20 mM HEPES, 145 mM NaCl, 5 mM CaCl2, 0.05% Triton X-100, pH 7.5; Z-Lys-SBzl substrate, read at 410 nm.
For test [1], the target named is active MASP-3cf (catalytic fragment of active MASP-3 containing the CCP1-CCP2-SP domains) (human) (UniProt P48740). The description is as above.
Test [2] has the same target. Description: enzyme inhibition assay (equilibrium KI from residual activity, photometric); Ca2+-free buffer: 20 mM HEPES, 150 mM NaCl, 0.1 mM EDTA, 0.05% Triton-X100, pH 7.4.
For a further test, the target named is TFMI-3_HA (human) (UniProt P10646). Description: SPR; ProteOn XPR36, GLM chip; TFMI-3_HA captured on immobilised anti-HA antibody (50-80 RU), MASP-3cf injected; 20 mM HEPES, 150 mM NaCl, 5 mM CaCl2, 0.05% Triton X-100, pH 7.4; 1:1 Langmuir model.

For the molecule “TFPI-based MASP-3 Inhibitor (TFMI-3) (from UniProt P10646 121-178) (designed binder)”, the Ki with active MASP-2cf (human) was determined as 75000 nM; in test [1] it was 11.1 nM; in test [2] it was 9.9 nM.

B1: active MASP-3cf (catalytic fragment of active MASP-3 containing the CCP1-CCP2-SP domains) (enzyme)
chain: IIGGRNAEPGLFPWQALIVVEDTSRVPNDKWFGSGALLSASWILTAAHVLRSQRRDTTVIPVSKEHVTVYLGLHDVRDKSGAVNSSAARVVLHPDFNIQNYNHDIALVQLQEPVPLGPHVMPVCLPRLEPEGPAPHMLGLVAGWGISNPNVTVDEIISSGTRTLSDVLQYVKLPVVPHAECKTSYESRSGNYSVTENMFCAGYYEGGKDTCLGDSGGAFVIFDDLSQRWVVQGLVSWGGPEECGSKQVYGVYTKVSNYVDWVWEQMGLPQSVVEPQVER
In the test with TFMI-3_HA (human), B1 showed a Kd of 17.7 nM, an off-rate (koff) of 0.00093 s⁻¹ and a kon of 52500 M⁻¹ s⁻¹.

Values taken from PMC4989169.
